Common to all, as to assay type: binding
The target of assay [1] is T1, Human commercial BCMA (Homo sapiens, UniProt Q02223).
T1 construct: purchased US Biological B0410
T1 sequence (Q02223 1-184): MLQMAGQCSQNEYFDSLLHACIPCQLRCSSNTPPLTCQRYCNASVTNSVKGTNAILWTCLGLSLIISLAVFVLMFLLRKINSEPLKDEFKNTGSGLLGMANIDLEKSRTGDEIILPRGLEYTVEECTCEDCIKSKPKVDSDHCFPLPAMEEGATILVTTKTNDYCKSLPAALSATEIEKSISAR
The experiment in a line: BIAcore analysis J7 to J9 series, human commercial BCMA. The following applies: 37° C.; for ka: in M-1s-1 (unit assumed); for kd: in s-1 (unit assumed). The protocol: Protein A was immobilised on a CMS chip (GE Healthcare, Cat No: BR-1005-30) by primary amine coupling and this surface was then used to capture the antibody molecules. Recombinant human BCMA (US Biological, B0410) was used as analyte at 256 nM, 64 nM, 16 nM, 4 nM and 1 nM. Regeneration of the capture surface was carried out using 50 mM NaOH. All binding curves were double referenced with a buffer injection (i.e. 0 nM) and the data was fitted to the using the 1:1 model inherent to T100 evaluation software. The run was carried out at 37° C., using HBS-EP as the running buffer.
(In SPR one partner is held on a chip, and binding of the other changes the refractive index at the surface.)

The target of a further assay is T2, Human in house BCMA (Homo sapiens, UniProt Q02223).
T2 construct: CD33 signal peptide (N); TEV site (internal); Fc (C); made in house
T2 sequence (Q02223 with tags, fused parts or gaps limits assumed): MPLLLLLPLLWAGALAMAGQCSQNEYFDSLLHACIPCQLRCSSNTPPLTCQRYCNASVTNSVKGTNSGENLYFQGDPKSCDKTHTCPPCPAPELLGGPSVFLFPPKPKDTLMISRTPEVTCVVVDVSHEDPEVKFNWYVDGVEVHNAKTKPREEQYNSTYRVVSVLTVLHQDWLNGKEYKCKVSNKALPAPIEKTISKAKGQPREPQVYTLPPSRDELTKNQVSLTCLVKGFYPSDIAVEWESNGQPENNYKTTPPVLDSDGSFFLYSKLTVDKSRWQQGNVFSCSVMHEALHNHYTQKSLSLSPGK
In words: ProteOn analysis of CA8 chimeric and humanised constructs, human in house BCMA. The following applies: for off rate: Run 2, ProteOn, recombinant human BCMA, no affinity values obtained; for ka / kd / KD: ProteOn, 25° C.; for ka: in M-1s-1 (unit assumed); for kd: in s-1 (unit assumed). The protocol: (§1) The initial screen of CA8 chimeric and humanised variants was carried out on the ProteOn XPR36 (Biorad). The method was as follows; Protein A was immobilised on a GLC chip (Biorad, Cat No: 176-5011) by primary amine coupling, CA8 variants were then captured on this surface and recombinant human BCMA (in house or commercial US Biological, B0410) materials (run 2 only)) passed over at 256, 64, 16, 4, 1 nM with a 0 nM injection (i.e. buffer alone) used to double reference the binding curves, the buffer used is the HBS-EP buffer. 50 mM NaOH was used to regenerate the capture surface. The data was fitted to the 1:1 model using the analysis software inherent to the ProteOn XPR36. Run 1 corresponds to the first screen of humanised CA8 variants (JO to J5 series) and run 2 to the second screen of humanised CA8 variants (J5 to J9 series). Both runs were carried out at 25° C.

Assay [2] concerns Cyno in house BCMA. The experiment in a line: BIAcore analysis J7 to J9 series, cyno in house BCMA. As to conditions: 37° C.; for ka: in M-1s-1 (unit assumed); for kd: in s-1 (unit assumed).
Cyno in house BCMA, sequence (as listed by the source): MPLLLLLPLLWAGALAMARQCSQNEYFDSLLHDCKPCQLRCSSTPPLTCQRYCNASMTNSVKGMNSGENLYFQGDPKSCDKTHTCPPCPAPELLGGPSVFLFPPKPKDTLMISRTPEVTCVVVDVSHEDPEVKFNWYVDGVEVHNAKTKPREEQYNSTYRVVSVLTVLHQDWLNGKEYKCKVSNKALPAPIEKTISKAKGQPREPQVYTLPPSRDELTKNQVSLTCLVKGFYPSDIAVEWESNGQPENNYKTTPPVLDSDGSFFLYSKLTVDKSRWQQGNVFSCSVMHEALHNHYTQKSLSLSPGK
The target of assay [3] is Cyno in house BCMA. The experiment in a line: ProteOn analysis of CA8 chimeric and humanised constructs, cyno in house BCMA. The following applies: 25° C.
Assay [4] addresses T1, Human commercial BCMA. The experiment in a line: ProteOn analysis of CA8 chimeric and humanised constructs, commercial human BCMA. The following applies: Run 2, commercial human BCMA, 25° C. The protocol:
as §1

Changes are numbered by the printed parent chain.

B1: CA8 humanised J9M1: humanised CA8 anti-BCMA antibody, VH J9 (SEQ ID NO:29) + VL M1 (SEQ ID NO:33) (antibody, V domains shown)
VH: QVQLVQSGAEVKKPGSSVKVSCKGSGYTFTNYWMHWVRQAPGQGLEWIGATYRGHSDTYYNQKFKGRATLTADTSTSTAYMELSSLRSEDTAVYYCTRGAIYDGYDVLDNWGQGTLVTVSS
VL: DIQMTQSPSSLSASVGDRVTITCSASQDISNYLNWYQQKPGKAPKLLIYYTSNLHSGVPSRFSGSGSGTDYTLTISSLQPEDFATYYCQQYRKLPWTFGQGTKLEIKR
modifications: Humansed antibody sequence
In the assay with Human commercial BCMA [1], B1 registered a ka of 1.96E+07 and a kd of 3.50E−04. Besides, the off rate result with Human in house BCMA is recorded as “beyond the sensitivity of the assay”. In the assay on Cyno in house BCMA [2], this molecule displayed a ka of 6.77E+05 and a kd of 2.99E−04.

B2: S307118G03 humanised H3L1: humanised S307118G03, VH H3 (SEQ ID NO:83) + VL L1 (SEQ ID NO:91) (antibody, V domains shown)
VH: QVQLVQSGAEVKKPGSSVKVSCKASGYTFTDYYMKWVRQAPGQGLEWIGEIYPNNGGITYNQKFKGRATLTVDKSTSTAYMELSSLRSEDTAVYYCANGYEFVYWGQGTLVTVSS
VL: B1 VL with D28G, N53S, R92S
modifications: Humansed antibody sequence
On to B2, for which, in the assay with Human in house BCMA (Run 1, Human in house BCMA), the ka worked out at 4.69E+05 and the kd came to 2.28E−03. The KD entry on Cyno in house BCMA [3] (Run 1, Cyno in house BCMA) is listed as “No”.

B3: S307118G03 H5L0: humanised S307118G03, VH H5 (SEQ ID NO:87) + VL L0 (SEQ ID NO:89) (antibody, V domains shown)
VH: B2 VH with V103D
VL: B1 VL with D28G, N53S, Y71F, R92S
modifications: Humansed antibody sequence
Regarding B3, the KD entry with Human in house BCMA (Run 2, Human in house BCMA) is “No Analysable Binding”; at Cyno in house BCMA [3] (Run 2, Cyno in house BCMA), “No”; with Human commercial BCMA [4], “V weak signal”.

B4: S307118G03 H5L1: humanised S307118G03, VH H5 (SEQ ID NO:87) + VL L1 (SEQ ID NO:91) (antibody, V domains shown)
VH: B2 VH with V103D
VL: B1 VL with D28G, N53S, R92S
modifications: Humansed antibody sequence
As for B4, the KD result is “No Analysable Binding” in the assay with Human in house BCMA (Run 2, Human in house BCMA); “No” at Cyno in house BCMA [3] (Run 2, Cyno in house BCMA); “V weak signal” with Human commercial BCMA [4].

B5: CA8 humanised J1M1: humanised CA8 anti-BCMA antibody, VH J1 (SEQ ID NO:13) + VL M1 (SEQ ID NO:33) (antibody, V domains shown)
VH: B1 VH with G24A, I48M, A68V, L70I, T74K, T97A, D103N
VL: B1 VL
modifications: Humansed antibody sequence
For B5, the ka came to 2.27E+05 with Human in house BCMA (Run 1, Human in house BCMA) and 3.33E+05 with Cyno in house BCMA [3] (Run 1, Cyno in house BCMA, in M-1s-1 (unit assumed)). The kd is listed as 3.43E−04 with Human in house BCMA (Run 1, Human in house BCMA) and 1.47E−04 on Cyno in house BCMA [3] (Run 1, Cyno in house BCMA, in s-1 (unit assumed)).

B6: CA8 humanised J7M1: humanised CA8 anti-BCMA antibody, VH J7 (SEQ ID NO:25) + VL M1 (SEQ ID NO:33) (antibody, V domains shown)
VH: B1 VH with G24A, I48M, A68V, L70I, T74K, T97A
VL: B1 VL
modifications: Humansed antibody sequence
For the molecule B6, the ka worked out at 2.35E+06 with Human commercial BCMA [1] and 3.70E+05 in the assay on Cyno in house BCMA [2]. Moreover, the kd with Human commercial BCMA [1] was 1.31E−04; on Cyno in house BCMA [2], 3.91E−04. In the assay with Human in house BCMA, the off rate result was “beyond the sensitivity of the assay”.

B7: S307118G03 humanised H3L0: humanised S307118G03, VH H3 (SEQ ID NO:83) + VL L0 (SEQ ID NO:89) (antibody, V domains shown)
VH: B2 VH
VL: B1 VL with D28G, N53S, Y71F, R92S
modifications: Humansed antibody sequence
As to B7, in the assay with Human in house BCMA (Run 1, Human in house BCMA), the ka is 2.86E+05 and the kd is reported as 1.52E−03. Besides, the KD result at Cyno in house BCMA [3] (Run 1, Cyno in house BCMA) was “No”.

B8: S307118G03 humanised H4L1: humanised S307118G03, VH H4 (SEQ ID NO:85) + VL L1 (SEQ ID NO:91) (antibody, V domains shown)
VH: B2 VH with I48M, A68V, L70I, V72A, N98D
VL: B1 VL with D28G, N53S, R92S
modifications: Humansed antibody sequence
For B8, the KD entry in the assay with Human in house BCMA (Run 1, Human in house BCMA) is “No”; at Cyno in house BCMA [3] (Run 1, Cyno in house BCMA), “No”.

B9: S307118G03 humanised H2L1: humanised S307118G03, VH H2 (SEQ ID NO:81) + VL L1 (SEQ ID NO:91) (antibody, V domains shown)
VH: B2 VH with I48M, A68V, L70I, V72A
VL: B1 VL with D28G, N53S, R92S
modifications: Humansed antibody sequence
In the assay with Human in house BCMA (Run 1, Human in house BCMA), B9 came in with a ka of 3.38E+05 and a kd of 2.15E−03. Moreover, the KD result on Cyno in house BCMA [3] (Run 1, Cyno in house BCMA) is “No”.

B10: S307118G03 humanised H2L0: humanised S307118G03, VH H2 (SEQ ID NO:81) + VL L0 (SEQ ID NO:89) (antibody, V domains shown)
VH: B2 VH with I48M, A68V, L70I, V72A
VL: B1 VL with D28G, N53S, Y71F, R92S
modifications: Humansed antibody sequence
Consider B10, for which, in the assay with Human in house BCMA (Run 1, Human in house BCMA), the ka is 3.78E+05 and the kd was 2.41E−03. Besides, the KD result on Cyno in house BCMA [3] (Run 1, Cyno in house BCMA) is “No”.

B11: CA8 humanised J7M2: humanised CA8 anti-BCMA antibody, VH J7 (SEQ ID NO:25) + VL M2 (SEQ ID NO:35) (antibody, V domains shown)
VH: B1 VH with G24A, I48M, A68V, L70I, T74K, T97A
VL: B1 VL with M4L, K45E, L47V
modifications: Humansed antibody sequence
Regarding B11, the ka was determined as 2.37E+06 in the assay with Human commercial BCMA [1] and 3.46E+05 in the assay with Cyno in house BCMA [2]. Further, the kd with Human commercial BCMA [1] is 1.35E−04; at Cyno in house BCMA [2], 4.47E−04. In addition, the off rate result in the assay with Human in house BCMA is listed as “beyond the sensitivity of the assay”.

(Values after patent publication US11419945B2, “Antigen binding proteins” (Glaxo Group Limited, priority 2011, dated 2022).)
